Test results reported in US20240016892A1 (SHATTUCK LABS, published 2024).

Tests used:
recombinant human PVR [1] = target: T1, recombinant human PVR (human, UniProt P15151 21-343); test: BLI (Octet-Red96), tagged rhPVR immobilised on biosensor
T1 construct: The tagged PVR of the BLI assay and the biotinylated PVR used as detector in MSD are treated as one molecule; also called rhPVR; CD155
T1 sequence (looked up): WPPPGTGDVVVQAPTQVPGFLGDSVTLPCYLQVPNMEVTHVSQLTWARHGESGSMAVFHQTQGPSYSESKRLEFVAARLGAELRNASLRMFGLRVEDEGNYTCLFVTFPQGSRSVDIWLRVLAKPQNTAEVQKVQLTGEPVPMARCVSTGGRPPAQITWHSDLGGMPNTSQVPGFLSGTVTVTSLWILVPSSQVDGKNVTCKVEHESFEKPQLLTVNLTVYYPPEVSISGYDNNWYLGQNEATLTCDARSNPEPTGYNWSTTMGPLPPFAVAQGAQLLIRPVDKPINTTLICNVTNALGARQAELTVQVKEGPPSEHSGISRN
Procedure: Bio-Layer interferometry-based affinity testing was used to determine the on-rates (Ka), off-rates (Kd) and binding affinities (KD) of the TIGIT-Fc-LIGHT chimeric protein to intended binding targets, using histidine- or biotin-tagged versions of the human recombinant proteins (PVR, HVEM, LTβR, PVRL2, PVRL3, and Nectin-4; purchased from Acro Biosystems or Sino Biological). Commercially available or internally produced single-sided fusion protein controls (TIGIT-Fc and Fc-LIGHT) were also tested in parallel. Targets were immobilized at a concentration of 3 μg/mL in Kinetics buffer (PBS/0.1% Tween-20/1% BSA; pH7.0) to anti-pentaHis or streptavidin coated biosensors. Direct binding of fusion proteins to recombinant target proteins was performed on an Octet-Red96 BLI instrument, using association and dissociation times of 90 and 120 seconds, respectively.
Protein-protein interactions (PPI) between the fusion proteins and their cognate binding partners were characterized using both recombinant protein and cell-based methods. First, bio-layer interferometry-based affinity testing was used to assess the kinetics of receptor/ligand binding.

[2] = target: T2, anti-human TIGIT antibody (MSD capture); test: MSD sandwich 'Dual - Antibody': capture anti-TIGIT, TIGIT-Fc-LIGHT titrated, detection anti-LIGHT
T2 construct: also called anti-TIGIT antibody

recombinant human PVR [3] = target: T1, recombinant human PVR; test: MSD sandwich 'Dual - Potency #2': capture HVEM-Fc, TIGIT-Fc-LIGHT titrated, detection PVR-Biotin (same curve as the capture row)
Procedure: (§1) For the TIGIT-Fc-LIGHT chimeric protein; MSD Multi-Array plates (MSD) were pre-coated overnight with recombinant human LTβR-Fc or HVEM-Fc (Acro Biosystems) at 4° C. The plates were blocked with Diluent 100 (MSD) for at least one hour at room temperature on a shaker. After washing, analysis samples were added and then serially diluted 3-fold and loaded in duplicate wells to generate 8-10 test concentrations. The bound the TIGIT-Fc-LIGHT chimeric protein was detected with recombinant biotinylated human PVR (Acro Biosystems). Streptavidin conjugated to ruthenium (MSD), was added to bind the biotin labeled detector. MSD Gold Reading buffer (MSD) was added to the plate, and upon application of an electrical charge, an electrochemiluminescent signal was produced and detected with the MSD MESO QuickPlex SQ 120MM, Model 1300, to generate relative light units (RLU). Analogous assays were performed using mTIGIT-Fc-LIGHT and murine recombinant PVR, HVEM, and […] (Acro Biosystems).
(§2) The binding of the TIGIT-Fc-LIGHT chimeric protein to its receptors was characterized by Meso Scale Discovery (MSD) ELISA assays. […] Binding of the chimeric protein to LTβR-Fc was detected using an PVR-Biotin and using an electrochemiluminescence (ECL) readout. […] Binding of the chimeric protein to HVEM-Fc was detected using an PVR-Biotin and using an electrochemiluminescence (ECL) readout. […]

[4] = target: T3, recombinant human HVEM-Fc (human, UniProt Q92956 39-202, limits assumed); test: MSD sandwich 'Dual - Potency #2': capture HVEM-Fc, TIGIT-Fc-LIGHT titrated, detection PVR-Biotin
T3 construct: also called human recombinant HVEM (MSD plates); not shown: Fc of the bought fusion (Acro Biosystems); not described
T3 sequence (looked up): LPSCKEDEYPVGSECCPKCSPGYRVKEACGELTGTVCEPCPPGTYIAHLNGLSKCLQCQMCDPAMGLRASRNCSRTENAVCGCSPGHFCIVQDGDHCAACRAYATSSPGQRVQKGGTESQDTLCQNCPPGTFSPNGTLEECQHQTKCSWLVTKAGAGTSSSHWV
Procedure: as §1, §2

[5] = target: T4, recombinant human Nectin-4 (human, UniProt Q96NY8 32-349); test: MSD: capture hNectin-4; detection anti-Fc-HRP
T4 sequence (looked up): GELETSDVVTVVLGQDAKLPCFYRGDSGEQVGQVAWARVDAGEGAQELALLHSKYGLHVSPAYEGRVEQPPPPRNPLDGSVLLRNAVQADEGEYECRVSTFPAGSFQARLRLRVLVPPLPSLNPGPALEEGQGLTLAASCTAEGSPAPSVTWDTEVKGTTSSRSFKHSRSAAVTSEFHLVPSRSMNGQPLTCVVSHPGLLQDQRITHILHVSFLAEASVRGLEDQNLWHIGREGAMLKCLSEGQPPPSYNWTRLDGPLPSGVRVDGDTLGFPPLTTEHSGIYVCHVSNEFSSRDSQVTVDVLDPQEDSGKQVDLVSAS

[6] = target: T5, recombinant human LTβR-Fc (human, UniProt P36941 31-227, limits assumed); test: MSD sandwich 'Dual - Potency #1': capture LTβR-Fc, TIGIT-Fc-LIGHT titrated, detection PVR-Biotin
T5 construct: not shown: Fc of the bought fusion (Acro Biosystems); not described
T5 sequence (P36941 31-227 limits assumed): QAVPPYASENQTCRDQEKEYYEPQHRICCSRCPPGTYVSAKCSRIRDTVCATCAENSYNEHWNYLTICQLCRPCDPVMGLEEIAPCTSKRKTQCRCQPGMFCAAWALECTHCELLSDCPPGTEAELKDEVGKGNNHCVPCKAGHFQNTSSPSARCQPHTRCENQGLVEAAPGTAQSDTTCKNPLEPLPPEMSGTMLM
Procedure: as §1, §2

[7] = target: T6, cell surface human LTβR (A375 cells; U2OS/NIK/NFκB reporter cells) (human, UniProt P36941 31-435); test: flow cytometry, A375 cells that express human LTβR; cell surface LTβR
T6 construct: whole, on cells; also called cell surface LTβR
T6 sequence (P36941 31-435): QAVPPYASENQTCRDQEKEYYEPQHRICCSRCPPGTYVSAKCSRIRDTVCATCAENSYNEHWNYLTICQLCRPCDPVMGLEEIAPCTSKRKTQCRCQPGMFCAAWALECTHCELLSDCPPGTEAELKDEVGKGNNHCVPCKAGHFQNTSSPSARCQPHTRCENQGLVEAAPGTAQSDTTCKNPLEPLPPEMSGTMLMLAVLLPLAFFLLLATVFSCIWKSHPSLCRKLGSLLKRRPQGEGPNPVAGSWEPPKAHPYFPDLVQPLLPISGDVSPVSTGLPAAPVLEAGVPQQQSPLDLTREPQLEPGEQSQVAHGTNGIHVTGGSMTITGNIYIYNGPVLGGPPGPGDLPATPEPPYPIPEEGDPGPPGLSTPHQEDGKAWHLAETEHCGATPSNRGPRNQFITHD

B1: human TIGIT-Fc-LIGHT chimeric protein (Fc fusion)
chain: MMTGTIETTGNISAEKGGSIILQCHLSSTTAQVTQVNWEQQDQLLAICNADLGWHISPSFKDRVAPGPGLGLTLQSLTVNDTGEYFCIYHTYPDGTYTGRIFLEVLESSVAEHGARFQIPSKYGPPCPPCPAPEFLGGPSVFLFPPKPKDQLMISRTPEVTCVVVDVSQEDPEVQFNWYVDGVEVHNAKTKPREEQFNSTYRVVSVLTVLHQDWLSGKEYKCKVSSKGLPSSIEKTISNATGQPREPQVYTLPPSQEEMTKNQVSLTCLVKGFYPSDIAVEWESNGQPENNYKTTPPVLDSDGSFFLYSRLTVDKSRWQEGNVFSCSVLHEALHNHYTQKSLSLSLGKIEGRMDLQLHWRLGEMVTRLPDGPAGSWEQLIQERRSHEVNPAAHLTGANSSLTGSGGPLLWETQLGLAFLRGLSYHDGALVVTKAGYYYIYSKVQLGGVGCPLGLASTITHGLYKRTPRYPEELELLVSQQSPCGRATSSSRVWWDSSFLGGVVHLEAGEKVVVRVLDERLVRLRDGTRSYFGAFMV
notes: Said to exist as a hexamer (dimer of trimers); Glycosylated; also called hTIGIT-Fc-LIGHT; TIGIT-Fc(IgG4)-LIGHT
- Kd (recombinant human PVR [1]): 4.07 nM
- koff (recombinant human PVR [1]): 0.000103 s⁻¹
- kon (recombinant human PVR [1]): 25300 M⁻¹ s⁻¹
- EC50 [2]: 1.15 nM
- EC50 (recombinant human PVR [3]): 86 nM
- EC50 [4]: 86 nM
- binding result [5]: binds
- EC50 [6]: 28.3 nM
- EC50 [7]: 87.1 nM
